Publication PMC9897464 (2022)

T1: biotinylated Cg1735ΔCD (residues 20 to 386) (Corynebacterium glutamicum ATCC13032, biotin (EZ-Link NHS-PEG4-Biotin, 20 molar excess; sites not stated))
T1 chain: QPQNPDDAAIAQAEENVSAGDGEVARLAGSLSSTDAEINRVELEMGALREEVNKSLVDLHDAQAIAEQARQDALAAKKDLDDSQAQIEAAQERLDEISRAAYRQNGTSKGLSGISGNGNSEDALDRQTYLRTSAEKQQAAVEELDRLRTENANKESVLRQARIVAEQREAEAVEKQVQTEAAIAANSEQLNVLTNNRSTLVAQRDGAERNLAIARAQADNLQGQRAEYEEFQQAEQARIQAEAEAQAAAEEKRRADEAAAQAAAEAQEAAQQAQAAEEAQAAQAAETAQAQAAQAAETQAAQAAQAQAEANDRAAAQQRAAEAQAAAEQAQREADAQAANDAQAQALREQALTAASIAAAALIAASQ

B1: Cg1735CD (catalytic domain, residues 460 to 600) (domain or fragment)
chain: DRSAQIETVIARAMSQLGVQYAWGGGNANGPTLGIRDGGVADSYGDYNKVGFDCSGLTLYAFAGVGISLPHYTGYQYQHGTKVSPSEMQRGDLIFYGPGASQHVAIYLGDGQMIEAPNSGSVVKISPVRWSGMTESVVRLI

Tests used:
[1] = target: biotinylated Cg1735ΔCD (residues 20 to 386) (Corynebacterium glutamicum ATCC13032); assay: BLI; biotinylated Cg1735ΔCD immobilised on streptavidin biosensors; Cg1735CD 20 to 0.3125 μM or Cg1604 200 to 3.125 μM; 25 °C; HEPES 25 mM pH 7.5, NaCl 150 mM, glycerol 5%, BSA 1 mg/mL; steady-state, one-site model; apparent Kd
[2] = target: T1, biotinylated Cg1735ΔCD (residues 20 to …); assay: BLI
[3] = target: His_SUMO_Cg1735CC1 (CC1 domain, residues 20 to 238) (Corynebacterium glutamicum ATCC13032); assay: BLI; His_SUMO_Cg1735CC1 immobilised on Ni-NTA biosensors; Cg1735CD 20 to 0.3125 μM; 25 °C; HEPES 25 mM pH 7.5, NaCl 150 mM, glycerol 5%, BSA 1 mg/mL; steady-state, one-site model; apparent Kd

Molecule | Kd [1] [µM] | Kd [2] [µM] | Kd [3] [µM]
Cg1604 (globular periplasmic domain, residues 36 to 295) (domain or fragment) | 56 | – | –
B1 | – | 1.9 | 1.2
